Laboratory results as given in patent publication US20160185837A1, “GIP AND GLP-1 RECEPTOR DUAL-AGONISTS FOR THE TREATMENT OF DIABETES” (Medimmune Limited, priority 2013, published 2016).

Columns and labels:
Assay in all cases: cell-based or functional assay
[1] = target: human GLP-1 receptor (human) (UniProt P43220)
[2] = target: T1, mouse GIP receptor (mouse) (UniProt Q0P543)
T1 sequence (looked up): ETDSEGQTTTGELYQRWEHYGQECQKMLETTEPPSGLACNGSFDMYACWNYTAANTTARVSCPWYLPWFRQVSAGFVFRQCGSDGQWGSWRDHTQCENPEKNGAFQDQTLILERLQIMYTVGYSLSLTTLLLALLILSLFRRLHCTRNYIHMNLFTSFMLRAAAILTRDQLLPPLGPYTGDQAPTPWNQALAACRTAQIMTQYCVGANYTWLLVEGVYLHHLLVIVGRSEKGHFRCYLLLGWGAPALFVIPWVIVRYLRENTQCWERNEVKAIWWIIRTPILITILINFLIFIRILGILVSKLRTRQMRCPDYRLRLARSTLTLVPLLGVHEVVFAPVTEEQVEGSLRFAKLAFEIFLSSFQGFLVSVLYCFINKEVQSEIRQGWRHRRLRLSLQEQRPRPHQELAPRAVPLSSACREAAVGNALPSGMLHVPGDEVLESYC

[3] = target: human glucagon receptor (human) (UniProt P47871)
Chain of human glucagon receptor (human) (P47871 26-477): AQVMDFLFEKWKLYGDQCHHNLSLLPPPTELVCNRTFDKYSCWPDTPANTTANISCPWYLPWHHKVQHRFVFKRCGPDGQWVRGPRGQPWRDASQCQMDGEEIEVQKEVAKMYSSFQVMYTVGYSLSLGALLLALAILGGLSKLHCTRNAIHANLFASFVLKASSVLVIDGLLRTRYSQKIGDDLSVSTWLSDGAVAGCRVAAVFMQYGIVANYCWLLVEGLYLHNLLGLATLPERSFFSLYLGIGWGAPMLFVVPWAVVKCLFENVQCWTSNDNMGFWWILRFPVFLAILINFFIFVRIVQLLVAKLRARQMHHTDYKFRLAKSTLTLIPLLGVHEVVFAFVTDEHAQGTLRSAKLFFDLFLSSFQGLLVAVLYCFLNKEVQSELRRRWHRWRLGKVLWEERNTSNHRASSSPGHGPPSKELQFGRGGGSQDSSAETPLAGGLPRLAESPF

[4] = target: T2, human GIP receptor (human) (UniProt P48546)
T2 sequence (looked up): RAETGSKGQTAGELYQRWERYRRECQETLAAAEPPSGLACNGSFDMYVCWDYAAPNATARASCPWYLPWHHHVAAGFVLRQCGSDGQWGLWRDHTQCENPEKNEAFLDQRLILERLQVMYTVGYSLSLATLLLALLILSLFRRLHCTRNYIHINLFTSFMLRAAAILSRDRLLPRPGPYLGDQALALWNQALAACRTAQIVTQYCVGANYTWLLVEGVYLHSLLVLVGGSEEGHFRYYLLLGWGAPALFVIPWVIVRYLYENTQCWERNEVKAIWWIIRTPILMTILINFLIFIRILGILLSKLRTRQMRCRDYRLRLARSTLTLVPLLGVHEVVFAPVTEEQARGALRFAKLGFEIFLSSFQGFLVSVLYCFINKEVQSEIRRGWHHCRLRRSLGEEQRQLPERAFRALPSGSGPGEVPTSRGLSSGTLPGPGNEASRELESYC

Chain of human GLP-1 receptor (human) (P43220 24-463): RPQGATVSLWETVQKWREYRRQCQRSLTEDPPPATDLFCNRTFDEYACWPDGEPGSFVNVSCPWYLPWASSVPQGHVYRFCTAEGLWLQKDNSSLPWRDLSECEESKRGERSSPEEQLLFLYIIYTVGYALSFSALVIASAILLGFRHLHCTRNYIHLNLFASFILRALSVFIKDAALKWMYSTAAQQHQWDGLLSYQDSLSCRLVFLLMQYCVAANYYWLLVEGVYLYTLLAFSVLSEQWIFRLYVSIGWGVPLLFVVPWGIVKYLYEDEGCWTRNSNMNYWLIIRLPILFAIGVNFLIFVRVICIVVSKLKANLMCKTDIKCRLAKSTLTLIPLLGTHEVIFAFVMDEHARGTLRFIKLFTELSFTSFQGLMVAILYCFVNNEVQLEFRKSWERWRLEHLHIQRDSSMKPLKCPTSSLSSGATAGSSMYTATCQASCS

Binder	cAMP EC50 [1]	cAMP EC50, Batch 1 [1]	cAMP EC50 [4]	further results
IP404 (Fc fusion) YSEGTFTSLYRIHKERQAIDEFIAKLLKGGGSGGGGSGGGGSGGGGSGGGGSGGGGSGGGGSGGGGSACPPC	> 17.2 nM	–	–	cAMP EC50 [2]: 0.05 nM; cAMP EC50 [3]: > 17.2 nM
IP408 (Fc fusion) YSEGTHTSDLRILLERQAIDEFIAKLLKGGGSGGGGSGGGGSGGGGSGGGGSGGGGSGGGGSGGGGSACPPC	> 166 nM	–	–	cAMP EC50 [2]: 0.38 nM; cAMP EC50 [3]: > 166 nM
IP422 (Fc fusion) YSEGTHTSDLRILLERQAIDEFIAFLLKGGGSGGGGSGGGGSGGGGSGGGGSGGGGSGGGGSGGGGSACPPC	> 59 nM	–	–	cAMP EC50 [2]: 0.012 nM; cAMP EC50 [3]: > 59 nM; cAMP EC50, hGIPr (C3) line [4]: 1.8 nM
IP238 (Fc fusion) HGEGTFTSDVSSYLEGQAAKEFIAWLVKGGGGGGSGGGGSGGGGSAESKYGPPCPPC	–	0.058 nM	–	cAMP EC50, Batch 1 [4]: 310 nM
IP197 (Fc fusion) YSEGTFTSDVSSYMERQAIDEFIAWLLAGAAAGGSGSTASSGSGSATGGGGAATHTCPPCPAPEF	0.78 nM	–	0.18 nM	–
IP173 (Fc fusion) YSEGTFTSDVSSYLEEQAAKEFIAWLLAGAAAGGSGSTASSGSGSATGGGGAATHTCPPCPAPEF	0.23 nM	–	1.2 nM	–
IP233 (Fc fusion) HGEGTFTSDVSSYLEEQAAKEFIAWLVKGAAAGGSGSTASSGSGSATGGGGAATHTCPPCPAPEF	–	0.036 nM	–	–
IP171 (Fc fusion) YSEGTFTSDVSSYMERQAISEFIAWLLAGAAAGGSGSTASSGSGSATGGGGAATHTCPPCPAPEF	0.53 nM	–	0.39 nM	–
IP208 (Fc fusion) YSEGTFTSDVSSYLEGQAAKEFIAWLLAGAAAGGSGSTASSGSGSATGGGGAATHTCPPCPAPEF	1.6 nM	–	17 nM	–
IP199 (Fc fusion) HGEGTFTSDVSSYLEGQAAKEFIAWLLAGAAAGGSGSTASSGSGSATGGGGAATHTCPPCPAPEF	0.069 nM	–	–	–
IP224 (Fc fusion) YSEGTFTSDVSSYMERQAIDEFIAWLLGGGAAAGGSGSTASSGSGSATGGGGAATHTCPPCPAPEF	0.57 nM	–	0.35 nM	–
IP176 (Fc fusion) YSEGTFTSDVSSYMERQAISEFIAWLLKGPAAAGGSGSTASSGSGSATGGGGAATHTCPPCPAPEF	0.6 nM	–	0.42 nM	–
IP203 (Fc fusion) HGEGTFTSDVSSYLEGQAAKEFIAWLVKGGAAAGGSGSTASSGSGSATGGGGAATHTCPPCPAPEF	–	0.042 nM	–	cAMP EC50, Batch 1 [3]: > 650 nM; cAMP EC50, Batch 1 [4]: 110 nM
IP150 (Fc fusion) YSEGTFTSDVSSYLEGQAAKEFIAWLVAGGAPPGGSGSTASSGSGSATGGGGAATHTCPPCPAPEF	0.033 nM	–	16 nM	–
IP207 (Fc fusion) YAEGTFISDYSIAMDKIHQQDFVNWLLAQKGKKNDWKHNITQAAAGGSGSTASSGSGSATGGGGAATHTCPPCPAPELL	4100 nM	–	0.0078 nM	cAMP EC50 [3]: 900 nM; cAMP EC50, Batch 1 [4]: 0.0085 nM
IP204 (Fc fusion) HGEGTFISDYSIAMDKIHQQDFVNWLLAQKAAAGGSGSTASSGSGSATGGGGAATHTCPPCPAPEF	850 nM	–	0.12 nM	–

Binder	cAMP EC50 [1]	cAMP EC50, Batch 1 [1]	cAMP EC50 [4]	further results
IP195 (Fc fusion) HGEGTFTSDVSSYLEGQAAKEFIAWLVKGAAAGGSGSTASSGSGSATGGGGESKYGPPCPPCPAPEF	–	0.061 nM	–	–
IP187 (Fc fusion) HGEGTFTSDVSSYLEGQAAKEFIAWLVKGAPPGGGGGSGGGGSGGGGSGGGGSATHTCPPCPAPEF	–	0.037 nM	–	cAMP EC50, Batch 1 [4]: 540 nM
IP191 (Fc fusion) HGEGTFTSDVSSYLEGQAAKEFIAWLVKGAAAGGSGSTASSGSGSATGGGGAATYTCPPCPAPEF	–	0.057 nM	–	–
IP192 (Fc fusion) HGEGTFTSDVSSYLEGQAAKEFIAWLVKGAAAGGSGSTASSGSGSATGGGGAATSTCPPCPAPEF	–	0.043 nM	–	–
IP146 (Fc fusion) HGEGTFTSDVSSYLEGQAAKEFIAWLVKGAAAGGSGSTASSGSGSATGGGGAACPPCPAPEF	–	0.049 nM	–	cAMP EC50, Batch 1 [3]: 650 nM; cAMP EC50, Batch 1 [4]: 83 nM
IP194 (Fc fusion) HGEGTFTSDVSSYLEGQAAKEFIAWLVKGAAAGGSGSTASSGSGSATGGGGPPCPPCPAPEF	–	0.061 nM	–	–
IP132 (Fc fusion) HGEGTFTSDVSSYLEGQAAKEFIAWLVKGGGGGGSGGGGSGGGGSGGGGSATHTCPPCPAPEF	–	–	–	cAMP EC50, Batch 2 [1]: 0.04 nM; cAMP EC50, Batch 2 [4]: 81 nM
IP193 (Fc fusion) HGEGTFTSDVSSYLEGQAAKEFIAWLVKGAAAGGSGSTASSGSGSATGGGGCPPCPAPEF	–	0.064 nM	–	cAMP EC50, Batch 1 [3]: 780 nM; cAMP EC50, Batch 1 [4]: 450 nM
IP196 (Fc fusion) HGEGTFTSDVSSYLEGQAAKEFIAWLVKGAAAGGSGSTASSGSGSATGGGGAPEF	–	0.073 nM	–	–
GGGGGSGGGGSGGGGSGGGGSATHTCPPC (Fc fusion, not shown: a dimerising Fc or GST) [IP288]	–	–	2300 nM	–
IP231 (Fc fusion) HGEGTFTSDVSSYLEEQAAKEFIAWLVKGGGGGGSGGGGSGGGGSGGGGSATHTCPPC	–	0.067 nM	–	–
IP174 (Fc fusion) HGEGTFTSDVSSYLEEEAAKEFIAWLVAGGAAAGGSGSTASSGSGSATGGGGAATHTCPPCPAPEF	0.032 nM	–	460 nM	–
IP188 (Fc fusion) YSEGTFISDYSIAMDKIHQQDFVNWLLAQKAPPGGGGGSGGGGSGGGGSGGGGSATHTCPPCPAPEF	–	500 nM	–	cAMP EC50, Batch 1 [3]: 350 nM; cAMP EC50, Batch 1 [4]: 0.0038 nM
IP407 (Fc fusion) YSEGTFTSDYSKLLEEEAIRLFIEWLLAGGGGGGSGGGGSGGGGSGGGGSATHTCPPC	0.25 nM	–	–	cAMP EC50 [2]: 2.3 nM; cAMP EC50 [3]: > 163 nM
IP420 (Fc fusion) YSEGTFTSDYSKLLEEEATRLFIEWLLAGGGGGGSGGGGSGGGGSGGGGSATHTCPPC	0.082 nM	–	–	cAMP EC50 [2]: 2.6 nM; cAMP EC50 [3]: 21 nM
